Source: patent US20210347873A1 (SHANGHAI PHARMAEXPLORER, published 2021)

T1: cynomolgus BLyS (full length, arginine 132 mutated to histidine) on CHO-K1 cells (cynomolgus, UniProt Q9Y275 1-285 (human entry))
T1 construct: also called cyno BLyS; CHO-K1 cynoBLyS
T1 chain: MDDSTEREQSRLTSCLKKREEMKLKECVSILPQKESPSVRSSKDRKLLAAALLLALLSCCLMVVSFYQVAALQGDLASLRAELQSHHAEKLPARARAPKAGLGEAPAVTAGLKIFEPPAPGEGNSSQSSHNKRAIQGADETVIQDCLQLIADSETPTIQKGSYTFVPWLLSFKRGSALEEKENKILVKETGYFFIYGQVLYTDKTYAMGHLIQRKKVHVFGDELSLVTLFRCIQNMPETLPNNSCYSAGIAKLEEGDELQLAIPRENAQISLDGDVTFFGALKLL


Legend:
[1] = target: T2, biotinylated hBLyS-ECD (human, UniProt Q9Y275 134-285, biotinylated with Biotin-X-X-NHS (molar ratio 7:1), sites not stated); assay: ELISA, biotinylated hBLyS-ECD captured on streptavidin; antibody 0.534 nM
T2 construct: The hBLyS-ECD of Embodiment 1 after biotinylation (Embodiment 2); also called biotinylated immunogen; BLyS protein; not shown: His tag of the pCPC vector
Description: Streptavidin was first diluted to a final concentration of 1.0 μg/mL with PBS, and then 50 μL of diluted streptavidin per well was aliquoted into 96-well ELISA plate, which was subsequently sealed with plastic film and incubated at 4° C. overnight. On the next day the plate was washed four times with the plate washing buffer [PBS buffer containing 0.05% (v/v) Tween20] and added with the blocking solution [PBS buffer containing 0.05% (v/v) Tween20 and 1% (w/w) BSA] and blocked for 2 hours at 37° C. The blocking solution was removed, the biotinylated hBLyS-ECD prepared in Embodiment 2 was diluted with PBS to a final concentration of 50 ng/mL and then aliquoted into the 96-well ELISA plate at 50 μL per well and incubated for 1 hour at 37° C. After rinsing the plate four times with the plate washing buffer [PBS buffer containing 0.05% (v/v) Tween20], 100 μl of the purified lead antibody harvested in Embodiment 1 and 2 was pipetted into each well. After incubation for 1 hour at 37° C., the plate was rinsed four times with the plate washing buffer [PBS buffer containing 0.05% (v/v) Tween20]. HRP-labeled (horseradish peroxidase) secondary antibody (purchased from Sigma) was added in and incubated at 37° C. for 1 hour. The plate was then rinsed four times with the plate washing buffer [PBS buffer containing 0.05% (v/v) Tween20]. 100 μL of TMB substrate was aliquoted into each well and after incubation for 5 minutes at room temperature, 100 μL of stop solution (1.0 N HCl) was aliquoted into each well. A₄₅₀ₙₘ values were read via an ELISA plate reader (SpectraMax M5e purchased from Molecular Devices) and the results were shown in FIGS. 5A-5B and Table 10.

[2] = target: T1, cynomolgus BLyS (full length, arginine …); assay: flow cytometry (FACS) on CHO-K1 cynoBLyS cells, Alexa 488 secondary antibody
[3] = target: T3, biotinylated hBLyS-ECD (human, UniProt Q9Y275 134-285, biotinylated with Biotin-X-X-NHS (molar ratio 7:1); sites not stated); assay: blocking ELISA: biotinylated hBLyS-ECD on coated BAFF R, antibody 0.8 nM
T3 construct: also called biotinylated immunogen; BLyS protein
Description: BAFF R (purchased from R & D Systems) was aliquoted into 96-well ELISA plate at 50 ng per well, and the plate was sealed with plastic film and incubated overnight at 4° C. On the next day the plate was washed four times with the plate washing buffer [PBS buffer containing 0.05% (v/v) Tween20] and added with blocking solution [PBS buffer containing 0.05% (v/v) Tween20 and 1% (w/w) BSA], then blocked for 1 hour at room temperature. The blocking solution was removed and 50 μL per well of the lead antibodies prepared in Embodiment 1 and 2 were added followed by the addition of 50 μL per well of the biotinylated hBLyS-ECD prepared in Embodiment 2. After incubation for 1 hour at 37° C., the plate was washed four times with the plate washing buffer [PBS buffer containing 0.05% (v/v) Tween20]. 100 μL per well of HRP-labeled (horseradish peroxidase) avidin (purchased from Sigma) was added and incubated at 37° C. for 1 hour. The plate was then washed four times with the plate washing buffer [PBS buffer containing 0.05% (v/v) Tween20]. 100 μL of TMB substrate was aliquoted into each well and after incubation for 5 minutes at room temperature, then 100 μL of stop solution (1.0 N HCl) was aliquoted into each well. A₄₅₀ₙₘ values were read with an ELISA plate reader (SpectraMax 384plus, Molecular Device) and the results were shown in FIGS. 9A-9B and Table 15. It was shown in Table 15 that the binding of BLyS protein to its receptor BAFF R could be blocked by the BLyS antibody.

OD450 nm [1] | EC50 (read off the curve) [2] [nM] | OD450 nm [3] [OD450 nm] | Binder
1.5 | ~0.2 | – | L1D12 (antibody, human IgG1, V domains shown, also called LID12) VH: QVQLVQSGGGLVQPGGSLRLSCAASGFTVSSNYMSWVRQAPGKGLEWVSVIYSGGSTYYADSVKGRFTISRDNSKNTLYLQMNSLRAEDTAVYYCARGFHDILTGYGMDVWGQGTTVTVSS VL: SSELTQDPAVSVALGQTVRITCQGDSLRNYYAGWYQQKPGQAPVLVIYGKNNRPSGIPDRFSGSSSGNTASLTITGTQAEDEADYYCSSRDNSGTHLVEFGGGTKLTVL
1.35 | ~0.2 | – | L9G7 (antibody, human IgG1, V domains shown) VH: QIQLVQSGAEVKKPGASVKVSCKASGYTFTSYGISWVRQAPGQGLEWMGWISAYNGNTNYAQKLQGRVTMTTDTSTSTAYMELRSLRSDDTAVYYCARTYYDILTGYYYYGMDVWGQGTTVTVSS VL: EIVLTQSPGTLSLSPGERATLSCRTSQSVDTYLAWYQQKPGQAPRLLIYDASNRATGIPARFSGSGSGTDFTLTISSLEPEDFAVYYCQQRSNWPLTFGGGTKVEIK
– | – | 0.424 | 97A3C2H4 (antibody, V domains shown, Mouse hybridoma monoclonal antibody purified on Protein G) VH: EVKLVESGGGLVQPGGSLKLSCAASGFTFSTYTMSWVRQTPEKRLEWVAYISYGGGSTSYPDTVKGRFTISRDNAKNTLYLQMSSLKSEDTAIYYCTRHVTVVENSMDYWGQGTSVTVSS VL: DILLTQSPDILSVSPGERVSFSCRASQSIGTSIHWYQQRTNGSPRLLIKYVSESFSGTPSRFSGSGSGTAFTLTINSVESEDIADYYCQQTHSWPWTFGGGTKLEIK
2.12 | ~0.3 | – | 97A3C2H4 (antibody, V domains shown, Mouse hybridoma antibody purified on Protein G) VH: EVKLVESGGGLVQPGGSLKLSCAASGFTFSTYTMSWVRQTPEKRLEWVAYISYGGGSTSYPDTVKGRFTISRDNAKNTLYLQMSSLKSEDTAIYYCTRHVTVVENSMDYWGQGTSVTVSS VL: DILLTQSPDILSVSPGERVSFSCRASQSIGTSIHWYQQRTNGSPRLLIKYVSESFSGTPSRFSGSGSGTAFTLTINSVESEDIADYYCQQTHSWPWTFGGGTKLEIK
– | – | 0.294 | 8E7D9C7F5 (antibody, V domains shown, Mouse hybridoma monoclonal antibody purified on Protein G) VH: QVQLQQSGVELARPGASVKLSCKASGYTFTSYGISWVKQRTGQALEWIGEIYPRSGNTYYNEKFKGKATLTADKSSSTAYMELRSLTSEDSAVYFCARSGPITTLVATDYGMDYWGQGTSVTVSS VL: DIVLTQSPASLAVSLGQRATISCRASKSVSTSSYSYMHWYQQKPGQPPKLLIKFASNLESGVPARFSGSGSGTDFTLNIHPVEEEDAATYYCQHSREFPYTFGGGTKLEIK
– | – | 0.717 | 111D10D6G3 (antibody, V domains shown, Mouse hybridoma monoclonal antibody purified on Protein G) VH: QVQLQQPGAELVKPGASVKMSCKASGYTFTRHWITWVKQRPGQGLEWIGDIFPGSGSINYNEKFKSEATLTVEKSSSTAYMQLSSLTSEDSAVYYCARGDVDVWGTGTTVTVSS VL: DIQMTQSPSSLSASLGERVSLTCRASQEIRGYLSWLQQKPNGTIKRLIYAASTLDSGVPKRFSATRSGSDFSLTISSLESEDFADYYCLQYASYPFTFGSGTKLEIK
1.41 | ~0.1 | – | 111D10D6G3 (antibody, V domains shown, Mouse hybridoma antibody purified on Protein G) VH: QVQLQQPGAELVKPGASVKMSCKASGYTFTRHWITWVKQRPGQGLEWIGDIFPGSGSINYNEKFKSEATLTVEKSSSTAYMQLSSLTSEDSAVYYCARGDVDVWGTGTTVTVSS VL: DIQMTQSPSSLSASLGERVSLTCRASQEIRGYLSWLQQKPNGTIKRLIYAASTLDSGVPKRFSATRSGSDFSLTISSLESEDFADYYCLQYASYPFTFGSGTKLEIK
